Results on 5 molecules are retold here after publication PMC5181682 (Nucleic Acids Research, 2016).

The chains are these.
B1: PCNA:TIP peptide complex (1:1) (complex)
chain: MPFEVVFDGAKEFADLIATASNLIDEAAFKFTEEGISMRAMDPSRVVLIDLNLPESIFSKYEVEEPETIGINMDQFKKILKRGKAKDTLILRKGDENFLEITFEGTAKRTFRLPLIDVEELELELPELPFTAKVVLLGEVLKEGIKDASLVSDAIKFIAKENEFTMKAEGETNEVEIRLTLEDEGLLDLEVEEETKSAYGIRYLSDMVKGIGKADEVILRFGNEMPLQMEYMIRDEGRLTFLLAPRVEE
peptide: RLKPTSLDSFLPEEHINYFRDLRIGSKKIRNAKIEEL
B2: Proliferating cell nuclear antigen (PCNA1) of Thermococcus kodakarensis (natural protein)
chain: B1 chain
B3: TIP (Thermococcales inhibitor of PCNA), full length (natural protein, T. kodakarensis, UniProt Q5JH72 1-64, looked up)
chain: MDRKLDEFIGDATPKKVSKEKPVRRKKRLKPTSLDSFLPEEHINYFRDLRIGSKKIRNAKIEEL

Series [1] deals with the molecule itself. Kind of series: SAXS; PCNA:TIP peptide complex at 6.4, 4.8, 4.1 and 2.1 mg/ml, purified by SEC, 50 mM Tris-HCl pH 7.3, 200 mM NaCl, room temperature; fit to a two-member ensemble (1:1 Model A and 2:2 Model C); 2:2 form to 1:1 complexes. Background: SEC sorts molecules by how far they enter the pores of the column.
Series [2] concerns the target B2. Kind of series: crystal structure; PCNA with TIP peptide (residues 28-64); same space group as PCNA:TIP; 3.4 Å. The following applies: both partners purified.
Series [3] deals with the molecule itself. Kind of series: SAXS; free PCNA in 50 mM Tris-HCl pH 7.3, 200 mM NaCl, room temperature; fit to the crystal structure PDB 3LX1.
For series [4], the target named is B2. Kind of series: crystal structure; PCNA with FEN-1 peptide, ratio about 1:5, sitting drop; well 2.8 M ammonium sulfate, 100 mM citric acid pH 5.3, 10% PEG 4000; 2.0 Å. The following applies: both partners purified.
Series [5] has as its target B2. Kind of series: crystal structure; PCNA with full length TIP, ratio about 1:1.2, hanging drop; well 1.2 M ammonium sulfate, 50 mM sodium citrate pH 4.0, 10% glycerol; 2.8 Å. The following applies: both partners purified.

The Kd is the equilibrium constant for the complex coming apart. What is called stoichiometry N is a count of units in the complex or per binding partner. B1: in series [1], the Kd was roughly 100 µM and the “stoichiometry N” value was 2.

For RLKPTSLDSFLPEEHINYFRDLRIGSKKIRNAKIEEL (peptide, UniProt Q5JH72 28-64, looked up) [TIP peptide (residues 28-64)], the binding result in series [2] was “binds”.

With B2, the “stoichiometry N” value in series [3] was 3.

KQRTLESWFGR (peptide, UniProt Q5JGN0 330-340, looked up) [flap endonuclease 1 (FEN-1) peptide (residues 330-340)]: the binding result in series [4] was “binds”.

For B3, in series [5], the binding result is reported as “binds”.
